We go through 1 protein from US20090317890.

For the data set, the target named is T1, human fibrin (clot formed from human fibrinogen, Sigma, with human thrombin), P02671.
T1 chain 1: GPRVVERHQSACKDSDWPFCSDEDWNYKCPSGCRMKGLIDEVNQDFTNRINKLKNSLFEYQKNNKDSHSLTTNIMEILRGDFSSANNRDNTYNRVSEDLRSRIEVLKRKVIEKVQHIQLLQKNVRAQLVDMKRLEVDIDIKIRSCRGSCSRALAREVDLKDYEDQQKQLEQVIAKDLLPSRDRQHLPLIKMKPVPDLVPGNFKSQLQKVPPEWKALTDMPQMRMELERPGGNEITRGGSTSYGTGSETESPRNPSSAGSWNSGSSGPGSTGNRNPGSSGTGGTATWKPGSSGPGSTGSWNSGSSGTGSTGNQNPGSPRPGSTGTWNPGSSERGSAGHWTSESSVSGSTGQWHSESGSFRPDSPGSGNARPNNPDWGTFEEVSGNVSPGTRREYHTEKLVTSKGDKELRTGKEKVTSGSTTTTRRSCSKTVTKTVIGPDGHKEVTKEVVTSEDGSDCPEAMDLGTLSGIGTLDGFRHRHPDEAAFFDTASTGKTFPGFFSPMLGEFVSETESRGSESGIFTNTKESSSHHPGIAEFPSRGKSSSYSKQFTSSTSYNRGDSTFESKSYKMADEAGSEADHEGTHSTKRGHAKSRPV
T1 chain 2: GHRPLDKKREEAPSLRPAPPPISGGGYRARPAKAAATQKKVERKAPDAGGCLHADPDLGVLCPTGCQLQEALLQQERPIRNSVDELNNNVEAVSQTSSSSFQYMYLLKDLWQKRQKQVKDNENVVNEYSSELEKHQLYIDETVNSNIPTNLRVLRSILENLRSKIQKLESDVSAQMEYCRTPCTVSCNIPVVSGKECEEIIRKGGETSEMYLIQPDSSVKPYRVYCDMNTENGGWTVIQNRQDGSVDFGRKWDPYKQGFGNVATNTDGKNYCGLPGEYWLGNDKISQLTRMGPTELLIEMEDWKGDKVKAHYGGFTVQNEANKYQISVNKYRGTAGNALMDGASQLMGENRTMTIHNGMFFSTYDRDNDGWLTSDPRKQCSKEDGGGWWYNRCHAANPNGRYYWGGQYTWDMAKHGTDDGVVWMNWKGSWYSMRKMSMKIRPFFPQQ
T1 chain 3: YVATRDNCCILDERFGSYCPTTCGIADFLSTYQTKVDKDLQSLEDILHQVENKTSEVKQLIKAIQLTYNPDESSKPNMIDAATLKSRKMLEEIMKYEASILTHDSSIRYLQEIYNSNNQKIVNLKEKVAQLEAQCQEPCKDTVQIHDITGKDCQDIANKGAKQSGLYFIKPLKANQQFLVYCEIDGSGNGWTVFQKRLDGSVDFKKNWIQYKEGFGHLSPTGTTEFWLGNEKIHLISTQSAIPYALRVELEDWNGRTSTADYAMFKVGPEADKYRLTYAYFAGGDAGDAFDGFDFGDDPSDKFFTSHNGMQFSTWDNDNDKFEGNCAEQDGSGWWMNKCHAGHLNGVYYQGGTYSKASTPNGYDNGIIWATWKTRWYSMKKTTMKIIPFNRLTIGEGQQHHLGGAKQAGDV

B1: recombinant zinc-dependent metalloprotease (fibrinolytic protease from metagenomic clone pES63H9) (protein)
chain: MEPEPIKTCTVLENPGYQPIHAPTDVSPQPVLAAMEAVPVPTPPPTVDAVMLFRKKWRDGKILRVHFMDGDPDVHRKVEEVAHTWSRHANVRFKFVDDPAADIRISFTQPGSWSYLGTDALRIARSQSTMNFGWLTPRSPDSEYNRVVIHEFGHALGLVHEHQNPDNGIPWNKPAVYEYYSGPPNNWSKEQVDTNLFQQYSEDQVRFTGFDRESIMLYPIPNEFTVGDFEVGWNRDLSADDKEFIGRMYPKPANELIVDDPPRASEISRYGEIDTYTFLVTQKGSYRIETDGRTDLVMLLYGPEDDTKLIAADDDSGRRLNPRITEELDWGKYTVRLQHFSQRQTGKYAVGVYRDDAAE
Turning to B1, the “hydrolysis of the fibrin α-chain, SDS-PAGE time course at 37° C.” value is “the purified enzyme completely hydrolyzed the α-chain and the γ-γ-chain at 37 °C after 1 h”; the “hydrolysis of the fibrin β-chain, SDS-PAGE time course at 37° C.” value is “The enzyme also partially hydrolyzed the β-chain after 30 min; however, it was not completely hydrolyzed after 2 h and even after 24 h (data not shown)”; the “hydrolysis of the fibrin γ-γ-chain, SDS-PAGE time course at 37° C.” value is “the purified enzyme completely hydrolyzed the α-chain and the γ-γ-chain at 37 °C after 1 h”.
